Data: publication PMC7083075 (Cell, 2019)

Biological target: T1, hKCNQ1EM (human KCNQ1, residues 76-620) (human, UniProt P51787-1 76-620)
T1 sequence (looked up): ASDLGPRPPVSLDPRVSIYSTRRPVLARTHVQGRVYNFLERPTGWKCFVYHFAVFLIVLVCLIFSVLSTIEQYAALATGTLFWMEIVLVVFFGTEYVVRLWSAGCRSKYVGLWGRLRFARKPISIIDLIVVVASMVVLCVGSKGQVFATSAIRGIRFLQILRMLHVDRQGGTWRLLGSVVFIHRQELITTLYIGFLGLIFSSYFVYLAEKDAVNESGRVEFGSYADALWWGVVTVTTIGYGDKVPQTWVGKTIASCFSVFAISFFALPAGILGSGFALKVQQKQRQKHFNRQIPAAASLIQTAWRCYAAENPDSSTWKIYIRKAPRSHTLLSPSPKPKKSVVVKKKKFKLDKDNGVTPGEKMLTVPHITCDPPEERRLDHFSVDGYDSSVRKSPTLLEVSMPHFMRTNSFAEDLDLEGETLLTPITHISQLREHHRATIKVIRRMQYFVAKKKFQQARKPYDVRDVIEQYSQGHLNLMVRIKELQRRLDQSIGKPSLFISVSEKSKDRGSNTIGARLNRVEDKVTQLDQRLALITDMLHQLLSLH
Assay: cryo-EM structure

stoichiometry N: 4 KCNE3 per KCNQ1 tetramer
B1: KCNE3 (full-length human, N-terminal mCherry2) (natural protein, UniProt Q9Y6H6 1-103, looked up)
chain: METTNGTETWYESLHAVLKALNATLHSNLLCRPGPGLGPDNQTEERRASLPGRDDNSYMYILFVMFLFAVTVGSLILGYTRSRKVDKRSDPYHVYIKNRVSMI
